T1: alpha-methylacyl-CoA racemase (AMACR) (UniProt Q9UHK6 1-382)
T1 sequence: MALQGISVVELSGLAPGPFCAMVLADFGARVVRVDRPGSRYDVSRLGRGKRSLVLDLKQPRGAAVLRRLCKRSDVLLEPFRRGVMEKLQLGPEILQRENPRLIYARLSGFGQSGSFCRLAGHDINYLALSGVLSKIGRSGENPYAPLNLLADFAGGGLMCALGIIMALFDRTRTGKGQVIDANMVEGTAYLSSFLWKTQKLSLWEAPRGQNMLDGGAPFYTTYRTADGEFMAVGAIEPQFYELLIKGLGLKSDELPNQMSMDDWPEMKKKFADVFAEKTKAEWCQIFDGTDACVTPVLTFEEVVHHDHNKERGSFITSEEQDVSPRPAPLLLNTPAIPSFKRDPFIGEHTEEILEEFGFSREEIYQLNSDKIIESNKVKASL

B1: truncated A38 (N30) (ssDNA)
DNA: CTTTATGTGTCGGGATCAGATACACATCCG
B2: DC14 (dimeric truncated C14) (ssDNA)
DNA: AACCAAATATCTACGCATCATTTTTCCTTTAACCAAATATCTACGCATCATTTTTCCTTT
B3: truncated A24 (N30) (ssDNA)
DNA: TGAACTACTTAGTTTTATCCACTTATCCTG
B4: truncated B4 (N30) (ssDNA)
DNA: GTCGAACCGTAGGGGCTATCTGTTGTGGGC
B5: truncated B38 (N30) (ssDNA)
DNA: AAAAATTTTTCCTTGTATGTCATTCTCTCA
B6: truncated C20 (N30) (ssDNA)
DNA: ACTTTTATCTCTCCTAACCTGTCCTGGGGT
B7: truncated C14 (N30) (ssDNA)
DNA: AACCAAATATCTACGCATCATTTTTCCTTT

Molecular target: T1, alpha-methylacyl-CoA racemase (AMACR)
Assay: ELAA

| Binder | Kd |
| --- | --- |
| B1 | 813 ± 405 nM |
| B2 | 66.6 ± 17 nM |
| B3 | 477 ± 170 nM |
| B4 | 869 ± 215 nM |
| B5 | 173 ± 91.8 nM |
| B6 | 206 ± 36.4 nM |
| B7 | 150 ± 55.8 nM |
